Reference: patent US7374920B2, “Ginkgo biloba levopimaradiene synthase” (priority 2001, dated 2008)
Entries after “also recorded” stand apart in the source; their conditions may differ.

B1: Ala^2 (protein, listed as Ginkgo biloba)
chain: MAGVLFANLPCSLQLSPKVPFRQSTNILIPFHKRSSFGFNAQHCVRSHLRLRWNCVGIHASAAETRPDQLPQEERFVSRLNADYHPAVWKDDFIDSLTSPNSHATSKSSVDETINKRIQTLVKEIQCMFQSMGDGETNPSAYDTAWVARIPSIDGSGAPQFPQTLQWILNNQLPDGSWGEECIFLAYDRVLNTLACLLTLKIWNKGDIQVQKGVEFVRKHMEEMKDEADNHRPSGFEVVFPAMLDEAKSLGLDLPYHLPFISQIHQKRQKKLQKIPLNVLHNHQTALLYSLEGLQDVVDWQEITNLQSRDGSFLSSPASTACVFMHTQNKRCLHFLNFVLSKFGDYVPCHYPLDLFERLWAVDTVERLGIDRYFKKEIKESLDYVYRYWDAERGVGWARCNPIPDVDDTAMGLRILRLHGYNVSSDVLENFRDEKGDFFCFAGQTQIGVTDNLNLYRCSQVCFPGEKIMEEAKTFTTNHLQNALAKNNAFDKWAVKKDLPGEVEYAIKYPWHRSMPRLEARSYIEQFGSNDVWLGKTVYKMLYVSNEKYLELAKLDFNMVQALHQKETQHIVSWWRESGFNDLTFTRQRPVEMYFSVAVSMFEPEFAACRIAYAKTSCLAVILDDLYDTHGSLDDLKLFSEAVRRWDISVLDSVRDNQLKVCFLGLYNTVNGFGKDGLKEQGRDVLGYLRKVWEGLLASYTKEAEWSAAKYVPTFNEYVENAKVSIALATVVLNSIFFTGELLPDYILQQVDLRSKFLHLVSLTGRLINDTKTYQAERNRGELVSSVQCYMRENPECTEEEALSHVYGIIDNALKELNWELANPASNAPLCVRRLLFNTARVMQLFYMYRDGFGISDKEMKDHVSRTLFDPVA
B2: Ser^61: Ginkgo biloba levopimaradiene synthase truncated at Ala^60-Ser^61; amino acid sequence SEQ.ID.NO:35 (protein, listed as Ginkgo biloba)
chain: MSAAETRPDQLPQEERFVSRLNADYHPAVWKDDFIDSLTSPNSHATSKSSVDETINKRIQTLVKEIQCMFQSMGDGETNPSAYDTAWVARIPSIDGSGAPQFPQTLQWILNNQLPDGSWGEECIFLAYDRVLNTLACLLTLKIWNKGDIQVQKGVEFVRKHMEEMKDEADNHRPSGFEVVFPAMLDEAKSLGLDLPYHLPFISQIHQKRQKKLQKIPLNVLHNHQTALLYSLEGLQDVVDWQEITNLQSRDGSFLSSPASTACVFMHTQNKRCLHFLNFVLSKFGDYVPCHYPLDLFERLWAVDTVERLGIDRYFKKEIKESLDYVYRYWDAERGVGWARCNPIPDVDDTAMGLRILRLHGYNVSSDVLENFRDEKGDFFCFAGQTQIGVTDNLNLYRCSQVCFPGEKIMEEAKTFTTNHLQNALAKNNAFDKWAVKKDLPGEVEYAIKYPWHRSMPRLEARSYIEQFGSNDVWLGKTVYKMLYVSNEKYLELAKLDFNMVQALHQKETQHIVSWWRESGFNDLTFTRQRPVEMYFSVAVSMFEPEFAACRIAYAKTSCLAVILDDLYDTHGSLDDLKLFSEAVRRWDISVLDSVRDNQLKVCFLGLYNTVNGFGKDGLKEQGRDVLGYLRKVWEGLLASYTKEAEWSAAKYVPTFNEYVENAKVSIALATVVLNSIFFTGELLPDYILQQVDLRSKFLHLVSLTGRLINDTKTYQAERNRGELVSSVQCYMRENPECTEEEALSHVYGIIDNALKELNWELANPASNAPLCVRRLLFNTARVMQLFYMYRDGFGISDKEMKDHVSRTLFDPVA

Assay: in vitro enzymatic assay of levopimaradiene synthase constructs expressed in E. coli BL21(DE3)
Type: biochemical, Escherichia coli
Conditions: for diterpene product on bacterial expression: E. coli BL21(DE3), soluble lysate fraction, 20 μM GGDP, overnight at 32° C., GC and GC/MS
Procedure: The desired plasmids were prepared by ligating the mutated gene insert into the similarly digested vectors pET32c(+) (Novagen; Madison, Wis.) and pRS426GAL (Hua, 2000), a multiple copy yeast expression vector. These plasmids was expressed in E. coli BL21(DE3) (Novagen; Madison, Wis.). E. coli cells were grown in Luria-Bertani medium supplemented with 100 μg/mL ampicillin at 37° C. with shaking to OD600 ˜0.6. The following parameters were tested: isopropyl 1-thio-β-D-galactopyranoside (IPTG) concentration (50, 100, 250, 500, and 1000 μM); and temperature and time (20° C. for 2, 3, 4, 6, 21 hours, 22° C. for 6, 8, 16, 19, 22, 45 hours, and 30° C. for 3, 6 hours). The following assay conditions were tested to obtain maximum diterpene product yield: 30 mM HEPES (N-2-hydroxyethylpiperazine-N′-[…]), pH 6.9, 7.2, 7.6, 8.0; 30 mM Tris (tris(hydroxymethyl)aminomethane hydrochloride), pH 7.4, 7.8, 8.2; 1, 5, 10% glycerol; 1, 3, 5, 10, 20 mM DTT (dithiothreitol); 20 mM β-mercaptoethanol; 2, 5, 8% Triton X-100; 5% Tween 80; 0, 2, 7.5, 20, 50 mM MgCl2; 0, 30, 500, 1000 μM MnCl2; 2, 10, 13.3, 20, 40, 80, 200 μM GGDP; and 23° C. and 32° C. assay temperatures.
Optimal soluble protein production and diterpene yield were obtained with the following conditions. Cell cultures were induced with 1 mM IPTG at 20° C. with shaking for 6 hours and lysed by sonication in 30 mM HEPES, pH 7.2, 5 mM DTT, and 5% glycerol. The soluble fraction of the lysate (100 mg/mL) was incubated with 20 μM GGDP in 30 mM HEPES, pH 7.2, 5 mM DTT, 5% glycerol, 2 mM MgCl2, and 500 μM MnCl2 overnight at 32° C.
All in vitro reactions were extracted 3× with hexane and dried over MgSO4. The reaction was further extracted twice with diethyl ether and dried over MgSO4. Thereafter, the crude lysate was suspended in 100 mM Tris, pH 8.0 containing 2.9 units/mg apyrase (a dephosphorylating agent) and 10 units/μL calf intestinal alkaline phosphatase, incubated at 30° C. for 3 hours, and extracted with diethyl ether as noted above (Croteau and Cane, 1985). The crude reaction mixtures were eluted over SiO2, concentrated, and analyzed by GC and GC/MS.
Gas chromatography spectra were obtained on a Hewlett Packard 6890 Series GC System equipped with an Rtx-5 capillary column (Restek, 30 m×0.25 mm i.d., 0.10 μm df). The following separation conditions and temperature program were employed: injector port 250° C., FID 250° C., split ratio 39:1, helium flow 20 cm/s (0.6 mL/min), 150° C. hold 5 min, increase to 250° C. (5° C./min), hold 5 min. GC/MS spectra were obtained on a Hewlett-Packard 5890A instrument with a 30-m DB-5 ms column (J&W Scientific Inc., 0.25 mm i.d., 0.10 μm df). The following separation conditions and temperature program were employed: injector port 280° C., transfer lines: 280° C., helium flow at 30 cm/s (1 mL/min) with splitless injection at 150° C. hold 3 min, increase to 250° C. (5° C./min), hold 5 min. Mass spectra (m/z 50 to 500) were obtained on a VG ZAB-HF reverse-geometry double-focusing instrument at 70 eV with an electron-impact ion source (200° C.). Accelerating voltage was set to 8 kV and the resolution was 1000 (10% valley).
The skilled artisan recognizes that lysis and assay conditions should be optimized. Examples of parameters that can be adjusted to optimize conditions include altering buffer, pH, reductant, reductant concentration, metal cofactors, cofactor concentrations, glycerol concentrations, substrate concentrations, and assay temperatures. […] Maximum soluble protein production and diterpene yield were obtained with the following conditions. Cell cultures were induced with 1 mM IPTG at 20° C. with shaking for 6 hours and lysed by sonication in 30 mM HEPES, pH 7.2, 5 mM DTT, and 5% glycerol. The soluble fraction of the lysate (100 mg/1 mL) was incubated with 20 μM GGDP in 30 mM HEPES, pH 7.2, 5 mM DTT, 5% glycerol, 2 mM MgCl2, and 500 μM MnCl2 overnight at 32° C. […]

Row | Molecule | diterpene product on bacterial expression | diterpene product on bacterial expression (listed as full-length cDNA) | difference in activity between highest (Ser^61) and lowest (Ala^2) levels (bacterial expression) | turnover of GGDP (bacterial expression, highest expression levels)
1 | B1 | produced levopimaradiene as the exclusive diterpene hydrocarbon | provided enzymatic activity capable of cyclizing geranylgeranyl diphosphate to levopimaradiene | approximately 80% | 
2 | B2 | produced levopimaradiene as the exclusive diterpene hydrocarbon; also recorded: provided enzymatic activity capable of cyclizing geranylgeranyl diphosphate to levopimaradiene |  |  | approximately 1%
